Results from publication PMC6224480, “Insights into Kinesin-1 Activation from the Crystal Structure of KLC2 Bound to JIP3” (Structure(London, England:1993), 2018).
*: point of attachment. FITC = O=C1OC2(c3ccc(O)cc3Oc3cc(O)ccc32)c2ccc(NC(=S)*)cc21

Legend:
Details in all cases: both partners purified
[1] = target: KLC2^TPR-myc third TPR1 mutant, printed as L220Y in Table S2 (mouse, UniProt O88448 191-480); experiment: ITC; FITC-CSTN-WD2 peptide as titrant (380 uM) into wild-type or mutant KLC2^TPR-myc (44-50 uM) in the cell; 25 C; 0.1 M NaCl, 25 mM HEPES, 1 mM TCEP, pH 7.5; 2-3 experiments globally fitted with the model A + B -> AB; apparent stoichiometry Napp
[2] = target: T1, KLC2^TPR-myc Tyr^208Ala mutant (murine, UniProt O88448 190-479, Tyr^208Ala); experiment: ITC; wild-type or mutant KLC2^TPR-myc (44-50 μM) in the cell; Trp-JIP3^LZ (dimer 297-330 μM) or FITC-CSTN-WD2 peptide (380 μM) as titrant; 0.1 M NaCl, 25 mM HEPES, 1 mM TCEP, pH 7.5
T1 construct: kinesin light chain 2 (KLC2), murine, TPR domain, residues 191-480; source: E. coli BL21(DE3) Rosetta, purified (His-trap, ULP1 cleavage, SEC); not shown: His6-SUMO, N-terminal, cleaved

[3] = target: T2, KLC2^TPR-myc Thr^200Asp mutant (murine, UniProt O88448 190-479, Thr^200Asp); experiment: as above
T2 construct: kinesin light chain 2 (KLC2), murine, TPR domain, residues 191-480; source: E. coli BL21(DE3) Rosetta, purified (His-trap, ULP1 cleavage, SEC); not shown: His6-SUMO, N-terminal, cleaved

KLC2^TPR-myc (wild type) [4] = target: T3, KLC2^TPR-myc (wild type) (murine, UniProt O88448 190-479); experiment: as above
T3 construct: kinesin light chain 2 (KLC2), murine, TPR domain, residues 191-480; also called KLC2^TPR-myc protein; source: E. coli BL21(DE3) Rosetta, purified (His-trap, ULP1 cleavage, SEC); not shown: His6-SUMO, N-terminal, cleaved

[5] = target: T4, KLC2^TPR-myc Gln^223Lys mutant (murine, UniProt O88448 190-479, Gln^223Lys); experiment: as above
T4 construct: kinesin light chain 2 (KLC2), murine, TPR domain, residues 191-480; source: E. coli BL21(DE3) Rosetta, purified (His-trap, ULP1 cleavage, SEC); not shown: His6-SUMO, N-terminal, cleaved

KLC2^TPR-myc (wild type) [6] = target: T3, KLC2^TPR-myc (wild type); experiment: fluorescence polarisation; FITC-LFP peptide (300 nM) with 2-fold dilutions of KLC2^TPR-myc; 0.1 M NaCl, 25 mM HEPES, 5 mM MgCl2, 1 mM TCEP, pH 7.5; 1 hour, room temperature; fluorescence anisotropy
KLC2^TPR-myc (wild type) [7] = target: T3, KLC2^TPR-myc (wild type); experiment: fluorescence polarisation; competition: FITC-LFP peptide (300 nM) and KLC2^TPR-myc fixed at 21 μM, 2-fold serial dilutions of unlabelled CSTN-WD1 peptide or Trp-JIP3^LZ; 0.1 M NaCl, 25 mM HEPES, 5 mM MgCl2, 1 mM TCEP, pH 7.5; competitive inhibition model

T3 sequence (O88448 190-479): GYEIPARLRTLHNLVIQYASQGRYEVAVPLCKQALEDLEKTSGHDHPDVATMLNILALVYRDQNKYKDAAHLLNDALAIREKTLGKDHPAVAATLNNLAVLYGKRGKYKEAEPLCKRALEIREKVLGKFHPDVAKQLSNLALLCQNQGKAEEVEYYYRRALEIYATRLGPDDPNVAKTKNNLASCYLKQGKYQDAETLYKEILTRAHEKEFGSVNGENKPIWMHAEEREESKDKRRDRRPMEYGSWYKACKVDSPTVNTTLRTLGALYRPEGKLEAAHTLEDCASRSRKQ
Sequence of KLC2^TPR-myc third TPR1 mutant, printed as L220Y in Table S2 (O88448 other isoform, or with tags, fused parts or gaps L220Y): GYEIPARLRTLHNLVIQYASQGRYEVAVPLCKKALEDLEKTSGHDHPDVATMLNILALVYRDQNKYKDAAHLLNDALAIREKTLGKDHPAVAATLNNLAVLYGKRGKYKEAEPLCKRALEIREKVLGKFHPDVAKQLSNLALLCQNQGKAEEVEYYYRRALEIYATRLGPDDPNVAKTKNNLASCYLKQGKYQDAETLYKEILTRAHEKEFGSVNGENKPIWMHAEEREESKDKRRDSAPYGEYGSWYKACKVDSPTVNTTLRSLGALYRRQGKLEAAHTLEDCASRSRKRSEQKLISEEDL
T1 sequence (O88448 other isoform, or with tags, fused parts or gaps Tyr^208Ala | Tyr^208Ala | mutant): as the sequence (O88448 190-479) above, with Y18A counted along it
T4 sequence (O88448 other isoform, or with tags, fused parts or gaps Gln^223Lys | Gln^223Lys | mutant): as the sequence (O88448 190-479) above, with Q33K counted along it
T2 sequence (O88448 other isoform, or with tags, fused parts or gaps Thr^200Asp | Thr^200Asp | mutant): as the sequence (O88448 190-479) above, with T10D counted along it

B1: FITC-labeled CSTN(WD2) peptide (FITC-TRQLEWDDSTL-COOH) (peptide)
peptide: {FITC}-TRQLEWDDSTL-OH
notes: tryptophan-acidic peptide (WD2 motif) derived from calsyntenin-1; also called FITC-CSTN-WD2 peptide; source: synthetic peptide; bought: Biomatik
Ka [1]: 739000 M⁻¹ | stoichiometry N [1]: 0.71

B2: FITC-labeled CSTN(WD2) peptide (FITC-TRQLEWDDSTL-COOH) (peptide)
peptide: {FITC}-TRQLEWDDSTL-OH
notes: tryptophan-acidic motif WD2 of calsyntenin-1; also called FITC-CSTN-WD2 peptide; tryptophan-acidic cargo peptide; source: synthetic peptide, bought: Biomatik
stoichiometry N [2]: ~0.7 | stoichiometry N [3]: ~0.7 | stoichiometry N (KLC2^TPR-myc (wild type) [4]): ~0.7 | stoichiometry N [5]: ~0.7

B3: FITC-labeled KLC2 LFP motif peptide (FITC-DSLDDLFPNEDEQS-COOH) (peptide)
peptide: {FITC}-DSLDDLFPNEDEQS-OH
notes: LFP motif (KLC2 residues 167-169) of the acidic linker of kinesin light chain 2; also called FITC-LFP peptide; FITC-labelled LFP-motif peptide; source: synthetic peptide, bought: Biomatik
Kd (KLC2^TPR-myc (wild type) [6]): 37 µM

B4: N-terminally acetylated CSTN-WD1 peptide (Ac-GKENEMDWDDSALTITVN-COOH) (peptide)
peptide: Ac-GKENEMDWDDSALTITVN-OH
notes: tryptophan-acidic motif WD1 of calsyntenin-1; also called calsyntenin-1 peptide; tryptophan-acidic peptide; source: synthetic peptide (Peptide Synthesis Laboratory, Francis Crick Institute, UK)
Ki (KLC2^TPR-myc (wild type) [7]): 11.3 µM
